Test results: publication PMC2132824
“And” between values parts separate entries of the source, which are not always exact repeats. Equal values may be shown once.

Tests used:
Assay in all cases: co-sedimentation
[1] = target: rabbit skeletal muscle F-actin (rabbit) (UniProt P68135)
F-actin = target: F-actin
[2] = target: human platelet nonmuscle F-actin (human) (UniProt P60709)

## recombinant full-length small espin (natural protein)
[1]
  Kd: 150 nM
F-actin
  stoichiometry N (actin monomers per espin): 3 and 4
[2]
  Kd: 50 nM
